Laboratory results: patent US20240270821A1, “GIP/GLP1/GCG TRI-RECEPTOR AGONISTS AND USES THEREOF” (priority 2023, published 2024)
Changes are numbered by the printed parent chain. Starred links: 1 amine or outer side, 2 acyl side, 3 side chain; linkers in the order of their positions; H or OH if unused. Non-standard residues stand in square brackets, D forms with d. Groups on a side chain read outwards from the residue. No end group written: not given here. *: point of attachment. C20 diacid = O=C(O)CCCCCCCCCCCCCCCCCCC(=O)*; C18 diacid = O=C(O)CCCCCCCCCCCCCCCCC(=O)*; γGlu = O=C(O)[C@H](CCC(=O)[*:2])N[*:1]; αMeL = CC(C)C[C@](C)(N)C(=O)O; Dap = NC[C@H](N)C(=O)O; AEEA = NCCOCCOCC(=O)O; Aib = CC(C)(N)C(=O)O

Legend:
Experiment in all cases: cell-based or functional assay
[1] = molecular target: T1, human GIP receptor (human) (UniProt P48546)
T1 sequence (looked up): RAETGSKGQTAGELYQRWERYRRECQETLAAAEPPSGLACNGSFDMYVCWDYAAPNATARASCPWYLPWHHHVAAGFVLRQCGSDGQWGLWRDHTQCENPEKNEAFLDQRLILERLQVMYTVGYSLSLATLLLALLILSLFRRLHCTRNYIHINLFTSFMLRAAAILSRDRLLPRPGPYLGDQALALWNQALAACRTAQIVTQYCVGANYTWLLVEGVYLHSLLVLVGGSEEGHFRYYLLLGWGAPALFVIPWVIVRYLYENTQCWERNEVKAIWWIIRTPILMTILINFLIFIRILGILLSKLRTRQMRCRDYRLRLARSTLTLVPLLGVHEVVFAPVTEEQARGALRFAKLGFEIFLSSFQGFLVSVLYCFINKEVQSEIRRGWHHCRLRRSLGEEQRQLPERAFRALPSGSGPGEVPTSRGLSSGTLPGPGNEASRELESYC

hGLP-1R = hGLP-1R (Homo sapiens, UniProt P43220)
Sequence of hGLP-1R (P43220 24-463): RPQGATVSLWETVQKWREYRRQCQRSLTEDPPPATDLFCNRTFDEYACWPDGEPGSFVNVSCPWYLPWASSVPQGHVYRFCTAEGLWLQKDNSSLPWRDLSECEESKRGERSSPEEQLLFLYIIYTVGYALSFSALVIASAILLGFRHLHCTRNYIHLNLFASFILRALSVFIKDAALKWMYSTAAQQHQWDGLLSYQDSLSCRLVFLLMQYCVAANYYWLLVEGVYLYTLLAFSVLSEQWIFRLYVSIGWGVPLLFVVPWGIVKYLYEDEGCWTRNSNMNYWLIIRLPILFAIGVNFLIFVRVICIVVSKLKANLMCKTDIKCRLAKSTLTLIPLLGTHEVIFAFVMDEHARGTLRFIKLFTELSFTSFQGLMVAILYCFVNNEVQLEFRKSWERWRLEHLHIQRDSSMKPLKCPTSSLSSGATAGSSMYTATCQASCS

[2] = molecular target: human glucagon receptor (human) (UniProt P47871)
Sequence of human glucagon receptor (human) (P47871 26-477): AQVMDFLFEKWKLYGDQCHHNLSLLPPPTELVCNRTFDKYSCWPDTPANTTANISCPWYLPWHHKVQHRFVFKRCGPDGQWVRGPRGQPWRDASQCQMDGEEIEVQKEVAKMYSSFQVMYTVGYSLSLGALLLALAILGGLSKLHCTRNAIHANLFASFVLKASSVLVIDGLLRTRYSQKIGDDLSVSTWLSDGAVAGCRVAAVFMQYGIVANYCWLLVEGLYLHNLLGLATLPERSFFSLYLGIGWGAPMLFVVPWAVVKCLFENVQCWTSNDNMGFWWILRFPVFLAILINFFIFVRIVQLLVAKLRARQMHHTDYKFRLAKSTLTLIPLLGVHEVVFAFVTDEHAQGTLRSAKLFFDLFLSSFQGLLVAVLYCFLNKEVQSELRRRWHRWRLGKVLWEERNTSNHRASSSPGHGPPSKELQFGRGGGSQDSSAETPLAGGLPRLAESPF

[3] = molecular target: human GLP-1R (SNAP-GLP-1R expressed in HEK293 cells) (human) (UniProt P43220)
Sequence of human GLP-1R (SNAP-GLP-1R expressed in HEK293 cells) (human) (P43220 24-463): as the sequence (P43220 24-463) above

Y[Aib]QGTFTSDYS[Dap][αMeL]LDKK([AEEA-γGlu-C18 diacid])AQ[Aib]AFIEYLLEGGESSGAPPPSGS-NH2 [Example 360]
Relative cAMP EC50 [1]: 0.45 nM | cAMP Rel EC50, nM (1% HSA) [1]: 78.3 nM | Relative cAMP EC50 (hGLP-1R): 5.86 nM | cAMP Rel EC50, nM (1% HSA) (hGLP-1R): 989 nM | Relative cAMP EC50 [2]: 5.28 nM | cAMP Rel EC50, nM (1% HSA) [2]: 1470 nM | GLP1R Internalization EC50 [3]: 214 nM | Internalization % TOP [3]: 66.1%

Y[Aib]QGTFTSDYSI[αMeL]LDKQAAK([AEEA-AEEA-γGlu-C20 diacid])QFVEWLIA[Aib]GPSSGEPPPAEG-NH2 [Example 334]
Relative cAMP EC50 [1]: 0.223 nM | cAMP Rel EC50 (1% HSA) [1]: 72.1 nM | Relative cAMP EC50 (hGLP-1R): 0.707 nM | cAMP Rel EC50 (1% HSA) (hGLP-1R): 171 nM | Relative cAMP EC50 [2]: 6.77 nM | cAMP Rel EC50 (1% HSA) [2]: 2070 nM | GLP1R Internalization EC50 [3]: 28.3 nM | Internalization % TOP [3]: 96.8%

B1: Example 694 (peptide)
chain: YXQGTXTSDXXIXLDXKAQXEFIEXLVEGGPSSGAPPPSGS
modifications: synthetic construct; SITE 2: note = 2-Aminoisobutyric Acid; SITE 6: note = alpha-methyl-2-fluoro-L-phenylalanine; SITE 10: note = 3-(4-Pyridyl)-L-alanine; SITE 11: note = alpha-methyl-L-serine; SITE 13: note = alpha-methyl-leucine; SITE 16: note = L-ornithine; SITE 17: note = Lysine is chemically mo
GLP1R Internalization EC50 [3]: 21.8 nM | Internalization % TOP [3]: 97.3%

B2: Example 358 (peptide)
chain: YXQGTFTSDYSKXLDKKAQXAFIEYLLEGGESSGAPPPSGS
modifications: synthetic construct; SITE 2: note = 2-Aminoisobutyric Acid; SITE 13: note = alpha-methyl-leucine; SITE 17: note = Lysine is chemically modified through conjugation of the epsilon-amino group of the Lysine side chain with (2-[2-(2-Amino-ethoxy)-ethoxy]-acetyl)-(gamma-Glu)-CO-(CH2) 16-CO2H; SITE 20: n
Relative cAMP EC50 [1]: 0.182 nM | cAMP Rel EC50, nM (1% HSA) [1]: 38.8 nM | Relative cAMP EC50 (hGLP-1R): 2.31 nM | cAMP Rel EC50, nM (1% HSA) (hGLP-1R): 492 nM | Relative cAMP EC50 [2]: 2.78 nM | cAMP Rel EC50, nM (1% HSA) [2]: 876 nM | GLP1R Internalization EC50 [3]: 21.5 nM | Internalization % TOP [3]: 83.1%

B3: Example 107 (peptide)
chain: B2 chain with Y10F, K12X, E31P, S41E
modifications: synthetic construct; SITE 2: note = 2-Aminoisobutyric Acid; SITE 12: note = L-ornithine; SITE 13: note = alpha-methyl-leucine; SITE 17: note = Lysine is chemically modified through conjugation of the epsilon-amino group of the Lysine side chain with (2-[2-(2-Amino-ethoxy)-ethoxy]-acetyl)2-(gamma-Glu)
Relative cAMP EC50 [1]: 0.426 nM | cAMP Rel EC50, nM (in the presence of 1% HSA) [1]: 61.3 nM | Relative cAMP EC50 (hGLP-1R): 8.5 nM | cAMP Rel EC50, nM (in the presence of 1% HSA) (hGLP-1R): 1110 nM | Relative cAMP EC50 [2]: 10.8 nM | cAMP Rel EC50, nM (in the presence of 1% HSA) [2]: 1690 nM | GLP1R Internalization EC50 [3]: 150 nM | Internalization % TOP [3]: 45.1%

B4: Example 359 (peptide)
chain: B2 chain with K12X
modifications: synthetic construct; SITE 2: note = 2-Aminoisobutyric Acid; SITE 12: note = L-ornithine; SITE 13: note = alpha-methyl-leucine; SITE 17: note = Lysine is chemically modified through conjugation of the epsilon-amino group of the Lysine side chain with (2-[2-(2-Amino-ethoxy)-ethoxy]-acetyl)-(gamma-Glu)
Relative cAMP EC50 [1]: 0.281 nM | cAMP Rel EC50, nM (1% HSA) [1]: 103 nM | Relative cAMP EC50 (hGLP-1R): 4.61 nM | cAMP Rel EC50, nM (1% HSA) (hGLP-1R): 826 nM | Relative cAMP EC50 [2]: 2.1 nM | cAMP Rel EC50, nM (1% HSA) [2]: 957 nM | GLP1R Internalization EC50 [3]: 49.6 nM | Internalization % TOP [3]: 74.4%

B5: Example 119 (peptide)
chain: B2 chain with Y10F, K12X, Y25W, E31P, S41E
modifications: synthetic construct; SITE 2: note = 2-Aminoisobutyric Acid; SITE 12: note = L-ornithine; SITE 13: note = alpha-methyl-leucine; SITE 17: note = Lysine is chemically modified through conjugation of the epsilon-amino group of the Lysine side chain with (2-[2-(2-Amino-ethoxy)-ethoxy]-acetyl)-(gamma-Glu)
GLP1R Internalization EC50 [3]: 73.5 nM | Internalization % TOP [3]: 43.4%

B6: Example 110 (peptide)
chain: B2 chain with Y10F, K12X, G29X, E31P, S41E
modifications: synthetic construct; SITE 2: note = 2-Aminoisobutyric Acid; SITE 12: note = L-ornithine; SITE 13: note = alpha-methyl-leucine; SITE 17: note = Lysine is chemically modified through conjugation of the epsilon-amino group of the Lysine side chain with (2-[2-(2-Amino-ethoxy)-ethoxy]-acetyl)-(gamma-Glu)
Relative cAMP EC50 [1]: 0.102 nM | cAMP Rel EC50, nM (in the presence of 1% HSA) [1]: 19.8 nM | Relative cAMP EC50 (hGLP-1R): 2.99 nM | cAMP Rel EC50, nM (in the presence of 1% HSA) (hGLP-1R): 821 nM | Relative cAMP EC50 [2]: 2.45 nM | cAMP Rel EC50, nM (in the presence of 1% HSA) [2]: 627 nM | GLP1R Internalization EC50 [3]: 28.3 nM | Internalization % TOP [3]: 42.5%

B7: Example 362 (peptide)
chain: B2 chain with K12Q
modifications: synthetic construct; SITE 2: note = 2-Aminoisobutyric Acid; SITE 13: note = alpha-methyl-leucine; SITE 17: note = Lysine is chemically modified through conjugation of the epsilon-amino group of the Lysine side chain with (2-[2-(2-Amino-ethoxy)-ethoxy]-acetyl)-(gamma-Glu)-CO-(CH2) 16-CO2H; SITE 20: n
Relative cAMP EC50 [1]: 0.262 nM | cAMP Rel EC50, nM (1% HSA) [1]: 38.7 nM | Relative cAMP EC50 (hGLP-1R): 1.77 nM | cAMP Rel EC50, nM (1% HSA) (hGLP-1R): 450 nM | Relative cAMP EC50 [2]: 6.04 nM | cAMP Rel EC50, nM (1% HSA) [2]: 1450 nM | GLP1R Internalization EC50 [3]: 22.8 nM | Internalization % TOP [3]: 77.5%

B8: Example 361 (peptide)
chain: B2 chain with K12R
modifications: synthetic construct; SITE 2: note = 2-Aminoisobutyric Acid; SITE 13: note = alpha-methyl-leucine; SITE 17: note = Lysine is chemically modified through conjugation of the epsilon-amino group of the Lysine side chain with (2-[2-(2-Amino-ethoxy)-ethoxy]-acetyl)-(gamma-Glu)-CO-(CH2) 16-CO2H; SITE 20: n
cAMP Rel EC50, nM (1% HSA) [1]: 46.3 nM | cAMP Rel EC50, nM (1% HSA) (hGLP-1R): 376 nM | cAMP Rel EC50, nM (1% HSA) [2]: 987 nM | GLP1R Internalization EC50 [3]: 50.4 nM | Internalization % TOP [3]: 73%

B9: Example 111 (peptide)
chain: B2 chain with Y10F, K12X, G29X, E31P, S41E
modifications: synthetic construct; SITE 2: note = 2-Aminoisobutyric Acid; SITE 12: note = L-ornithine; SITE 13: note = alpha-methyl-leucine; SITE 17: note = Lysine is chemically modified through conjugation of the epsilon-amino group of the Lysine side chain with (2-[2-(2-Amino-ethoxy)-ethoxy]-acetyl)2-(gamma-Glu)
Relative cAMP EC50 [1]: 0.0888 nM | cAMP Rel EC50, nM (in the presence of 1% HSA) [1]: 10.4 nM | Relative cAMP EC50 (hGLP-1R): 5.06 nM | cAMP Rel EC50, nM (in the presence of 1% HSA) (hGLP-1R): 878 nM | Relative cAMP EC50 [2]: 4.25 nM | cAMP Rel EC50, nM (in the presence of 1% HSA) [2]: 1260 nM | GLP1R Internalization EC50 [3]: 49.1 nM | Internalization % TOP [3]: 46.4%

B10: Example 686 (peptide)
chain: YXQGTXTSDXSIXLDXKAQXXFIEXLIEGGPSSGEPPPETE
modifications: synthetic construct; SITE 2: note = 2-Aminoisobutyric Acid; SITE 6: note = alpha-methyl-2-fluoro-L-phenylalanine; SITE 10: note = 3-(4-Pyridyl)-L-alanine; SITE 13: note = alpha-methyl-leucine; SITE 16: note = L-ornithine; SITE 17: note = Lysine is chemically modified through conjugation of the epsil
cAMP Rel EC50 (1% HSA) [1]: 0.542 nM | cAMP Rel EC50 (1% HSA) (hGLP-1R): 19.1 nM | cAMP Rel EC50 (1% HSA) [2]: 169 nM | GLP1R Internalization EC50 [3]: 33.2 nM | Internalization % TOP [3]: 101%
